Data from patent US20220401560A1, “PEPTIDE ENCAPSULATING FERRITIN” (Ajinomoto Co., Inc., priority 2019, published 2022).
No end group written: not given here.

Target: T1, ferritin (FTH) (Homo sapiens, UniProt P02794)
T1 construct: made in house; host or cells: Escherichia coli BL21 (DE3), plasmid pET20-FTH
Assay: Encapsulation of fluorescent dye-modified peptide into FTH, column chromatography with absorbance at 480 nm and LC-MS
Experimental: Of a 50 mM glycine hydrochloride buffer (pH 2.3) that contains FTH (chemical formula weight: 509,421) at a final concentration of 5 mg/mL and the peptide at a final concentration of 0.5 mM, 0.5 mL was left to stand at room temperature for 15 minutes. Next, 50 μL of a 1 M Tris hydrochloride buffer (pH 9.0) was added for neutralization, and the resulting solution was left to stand at room temperature for 3 hours. After the standing, the resulting solution was centrifuged (at 15,000 rpm for one minute). Then, the supernatant was collected and the volume was increased up to 3 mL with a 10 mM Tris hydrochloride buffer (pH 8). The resulting solution was injected into the HiPrep 26/60 Sephacryl S-300 HR column (GE Healthcare Inc.) equilibrated with a 10 mM Tris-HCl buffer (pH 8.0) to separate and purify 24-mer FTH by size at a flow rate of 1.3 mL/minute. The purified ferritin was analyzed using a HiPrep 16/60 Sephacryl S-300 HR column (GE Healthcare Inc.) equilibrated with a 10 mM Tris-HCl buffer (pH 8.0) at a flow rate of 0.5 mL/minute and confirmed as the absorbance at 480 nm unobservable from FTH only, at the same position as that of a peak of FTH.
The solution containing the FTH was concentrated to 0.25 mL by centrifugal ultrafiltration using Vivaspin 20-100K (GE Healthcare Inc.). […] For the LC-MS analysis, 50 μL of a 1 M glycine hydrochloride buffer (pH 2.3) was added to 50 μL of the sample solution and then the resulting solution was left to stand at room temperature for 15 minutes. To the solution 900 μL of ethanol was added. Next, the resulting solution was stirred vigorously and then centrifuged (at 15,000 rpm for five minutes) to collect its supernatant. The supernatant was analyzed using LCMS-2020 (Shimadzu Corporation) as LC-MS, inertsil (Registered trademark) ODS-3 with a particle diameter of 2 μm and 2.1 mm×50 mm (GL science) as a column. Into the column, 10 μL of the sample was injected, and eluded at a flow rate of 0.2 mL/min for 10 minutes such that a mixing ratio of a solution A (0.1% formic acid/99.9% acetonitrile) and a solution B (50% water/50% acetonitrile) was from 95:5 to 95:5. The concentration of the contained protein was determined using a protein assay CBB solution (Nacalai Tesque, Inc.) in terms of bovine albumin as a standard. The concentration of the encapsulated peptide was determined based on the absorbance at 480 nm of the fluorescent dye FAM to which PKC-F is modified.
First, the construction of FTH encapsulating two kinds of fluorescent dye-modified peptides [5(6)—FAM-[…] (SEQ ID NO: 10), FAM-SV40, chemical formula weight 1,516, and 5(6)—FAM-[…] […] (SEQ ID NO: 11), FAN-Np, chemical formula weight 384] was attempted. 0.5 mL of a 50 mM glycine hydrochloride buffer (pH 2.3) that contains FTH (chemical formula weight 509,421) at a final concentration of 5 mg/mL and a peptide at a final concentration of 0.5 mM, was left to stand at room temperature for 15 minutes. Next, 50 μL of a 1 M Tris hydrochloride buffer (pH 9.0) was added for neutralization, and the resulting solution was left to stand at room temperature for 3 hours. […] The absorbance at […] was confirmed at the same elusion position as that of ferritin 24-mer, for ferritin that was used for the operation to encapsulate FAM-SV40 therein. […] Next, the peptide amount of FAM-SV40 encapsulated in purified ferritin was quantified based on the 480 nm absorbance and by CBB staining with use of ferritin-amount-albumin as a standard.

T1 sequence (P02794 whole entry): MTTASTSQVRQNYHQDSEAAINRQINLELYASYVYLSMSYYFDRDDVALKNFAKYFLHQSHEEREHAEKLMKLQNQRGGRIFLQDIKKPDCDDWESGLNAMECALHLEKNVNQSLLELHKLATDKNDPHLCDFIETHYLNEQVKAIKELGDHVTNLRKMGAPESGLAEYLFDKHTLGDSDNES

For “5(6)-FAM-CGGPKKKRKVG (SEQ ID NO: 10) ({5(6)‑FAM}-CGGPKKKRKVG) [FAM-SV40, fluorescent dye-modified peptide, linear]”, the “molecules of peptide encapsulated in one molecule of ferritin on average” value (FTH, from molar ratio) was 2.5 molecules and the “encapsulation of peptide in FTH” value (absorbance at 480 nm at elution position of 24-mer FTH, LC-MS) was “encapsulated in ferritin”.
